Experimental data taken from patent US20040038249A1, “Inducible expression systems employing PPAR transcriptional activators” (priority 2002, published 2004).

Key:
[1] = form not soluble in water, doses between 5 and 50 mg/kg, for example 30 mg/kg; cited from earlier work
[2] = test system: PPAR Response Elements (PPREs) of wt origin or mutated response sequence (CYP4A6m1); assay: Luciferase reporter cotransfection with PPAR polypeptide and response element plasmids; format: cell-based, murine; settings: for luciferase activity from response elements: C2C12 murine myoblasts, untreated or treated with BRL49653 PPARγ ligand, panel of wt and mutated response elements
From the text: FIG. 2: Comparison of PPAR polypeptides derived from human PPARγ2 receptor. C2C12 murine myoblasts were cotransfected with a mixture of 3 different plasmids: (i) a plasmid expressing the wt or a mutated hPPARγ2; (ii) a plasmid in which the luc+ gene expression is driven by an inducible target sequence made of multiple PPAR Response Elements (PPREs) of wt origin (CYP4A6, CYP4A1 and HMG) or mutated response sequence (CYP4A6m1=SEQ ID No.: 26, CYP4A6m2=control with sequence 5′ GAACT AGGGCA A AGAACA 3′ (SEQ ID No.: 41), CYP4 μm=SEQ ID No.: 22, and HMGm=SEQ ID No.: 34); and (iii) a plasmid expressing the Renilla luciferase gene as an internal control of transfection efficiency. Measurement of luciferase activity for untreated cells (white bars) or cells treated with the BRL49653 PPARγ ligand (grey bars) is shown for each response element (left Y-axis). The relative induction level (x fold induction) resulting from ligand treatment is also shown (dots and right Y-axis)). Nomenclature for the PPAR amino acid sequences used refers to the first, second, and fifth (bolded) amino acid in the P-box of the Zinc finger domain, where wild type is EGCKG (see box in FIG. 1, panel B).
FIG. 3: DNA-binding specificity of the GSV mutant. C2C12 murine myoblasts were cotransfected with a mixture of 3 different plasmids: (i) a plasmid expressing the wt EGG or the GSV mutated hPPARγ2; (ii) a plasmid in which the luc+ gene expression is driven by an inducible target sequence made of multiple wt PPREs (apoAII, BIF, PPREcon, CYP4A1, CYP4A6, FABP, HMG and MEP cloned in sense (-S) or anti-sense (-AS) orientation) or the mutated response element (noted as “m” sequences in FIG. 6, such as CYP4A6m1=SEQ ID No.: 26); and (iii) a plasmid expressing the Renilla luciferase gene as an internal control of transfection efficiency. Expression levels for untreated cells (white) or cells treated with the BRL49653 PPARγ ligand (grey) are shown in left Y-axis and the relative induction (x fold induction) due to ligand treatment is shown in right Y-axis (dots).
One skilled in the art is familiar with protocols for transfecting plasmids into cell or infecting cells with virus. As an example, murine myoblasts (C2C12; ATCC: CRL1772) and human HEK293 (ATCC: CRL1573) cells are seeded in 24-well plates (7.5×10^4 cells per well) and grown for 24 h in DMEM supplemented with 10% FCS. Cells are washed in DMEM without serum and transfected in triplicate by adding to the cells 0.5 ml of OptiMEM mixed with various quantities of reporter gene (AP or luc) encoding plasmid, supplemented to 500 ng with a carrier plasmid and LipofectAMINE (2 μl for C2C12, 3 μl for HEK293). Five hours later, the medium containing the DNA and the LipofectAMINE is replaced by 1 ml of DMEM supplemented with FCS (2% for C2C12, 10% for HEK293). […]

Molecule	plasma concentration [1]	luciferase activity from response elements [2]	relative induction level resulting from ligand treatment ([2]; C2C12, BRL49653 treatment, CYP4A6m1 response element)	luciferase activity from response elements ([2]; listed as PPARγ2 (GSV))
CN(CCOc1ccc(CC2SC(=O)NC2=O)cc1)c1ccccn1 (centres unmarked) [BRL49653, rosiglitazone]	about 15 μg/ml	–	–	–
GSG: human PPARγ2 with GSCKG substitutions in the P-box (SEQ ID NO: 7) (protein, PPAR gamma 2 recombinant polypeptide comprising GSCKG in Zinc finger domain) MGETLGDSPIDPESDSFTDTLSANISQEMTMVDTEMPFWPTNFGISSVDLSVMEDHSHSFDIKPFTTVDFSSISTPHYEDIPFTRTDPVVADYKYDLKLQEYQSAIKVEPASPPYYSEKTQLYNKPHEEPSNSLMAIECRVCGDKASGFHYGVHACGSCKGFFRRTIRLKLIYDRCDLNCRIHKKSRNKCQYCRFQKCLAVGMSHNAIRFGRMPQAEKEKLLAEISSDIDQLNPESADLRALAKHLYDSYIKSFPLTKAKARAILTGKTTDKSPFVIYDMNSLMMGEDKIKFKHITPLQEQSKEVAIRIFQGCQFRSVEAVQEITEYAKSIPGFVNLDLNDQVTLLKYGVHEIIYTMLASLMNKDGVLISEGQGFMTREFLKSLRKPFGDFMEPKFEFAVKFNALELDDSDLAIFIAVIILSGDRPGLLNVKPIEDIQDNLLQALELQLKLNHPESSQLFAKLLQKMTDLRQIVTEHVQLLQVIKKTETDMSLHPLLQEIYKDLY	–	particularly strong and selective	–	–
GSV: human PPARγ2 with GSCKV substitutions in the P-box of the Zinc finger domain (SEQ ID NO: 8) (protein, PPAR gamma 2 recombinant polypeptide comprising GSCKV in Zinc finger domain) MGETLGDSPIDPESDSFTDTLSANISQEMTMVDTEMPFWPTNFGISSVDLSVMEDHSHSFDIKPFTTVDFSSISTPHYEDIPFTRTDPVVADYKYDLKLQEYQSAIKVEPASPPYYSEKTQLYNKPHEEPSNSLMAIECRVCGDKASGFHYGVHACGSCKVFFRRTIRLKLIYDRCDLNCRIHKKSRNKCQYCRFQKCLAVGMSHNAIRFGRMPQAEKEKLLAEISSDIDQLNPESADLRALAKHLYDSYIKSFPLTKAKARAILTGKTTDKSPFVIYDMNSLMMGEDKIKFKHITPLQEQSKEVAIRIFQGCQFRSVEAVQEITEYAKSIPGFVNLDLNDQVTLLKYGVHEIIYTMLASLMNKDGVLISEGQGFMTREFLKSLRKPFGDFMEPKFEFAVKFNALELDDSDLAIFIAVIILSGDRPGLLNVKPIEDIQDNLLQALELQLKLNHPESSQLFAKLLQKMTDLRQIVTEHVQLLQVIKKTETDMSLHPLLQEIYKDLY	–	highly selective	highest induction levels	specific for the CYP4A6m1
